Columns and labels:
[1] = biological target: T1, N-terminal His-tagged DnaK (His-DnaK) (E. coli, UniProt P0A6Y8 1-638); assay: peptide or protein array; CelluSpot array of cellulose-bound peptides on glass slides (8-residue peptides overlapping by seven); 50 nM His-DnaK in DB buffer (25 mM Tris-HCl pH 7.5, 150 mM NaCl, 10 mM KCl, 0.05% Tween 20, 5% sucrose) overnight at 4 °C; detected with HRP-conjugated anti-His antibody; settings: both partners purified
T1 construct: also called DnaKWT; bacterial Hsp70; source: E. coli BL21 (DE3), from pDnaKWT (ASKA clone), purified (TALON, Mono Q, Superdex G-200); not shown: His tag, N-terminal, kept
T1 sequence (P0A6Y8 whole entry): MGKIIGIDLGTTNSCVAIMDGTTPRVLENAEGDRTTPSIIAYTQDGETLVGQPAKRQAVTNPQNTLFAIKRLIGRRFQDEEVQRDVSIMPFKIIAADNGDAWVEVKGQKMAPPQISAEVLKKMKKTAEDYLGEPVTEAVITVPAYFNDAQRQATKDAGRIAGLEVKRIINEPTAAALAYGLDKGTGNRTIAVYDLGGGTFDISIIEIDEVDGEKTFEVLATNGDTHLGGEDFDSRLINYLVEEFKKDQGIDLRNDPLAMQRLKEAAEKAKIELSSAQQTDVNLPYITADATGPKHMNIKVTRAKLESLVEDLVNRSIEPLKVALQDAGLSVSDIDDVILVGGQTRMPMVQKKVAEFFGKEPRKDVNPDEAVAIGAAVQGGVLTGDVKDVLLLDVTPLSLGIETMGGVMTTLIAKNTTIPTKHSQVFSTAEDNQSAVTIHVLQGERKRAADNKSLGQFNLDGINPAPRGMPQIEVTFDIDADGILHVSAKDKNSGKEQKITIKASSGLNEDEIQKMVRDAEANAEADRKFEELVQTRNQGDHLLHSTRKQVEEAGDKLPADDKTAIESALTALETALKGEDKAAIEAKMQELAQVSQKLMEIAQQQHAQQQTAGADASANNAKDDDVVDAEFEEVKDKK

[2] = biological target: T1, N-terminal His-tagged DnaK (His-DnaK); assay: SPR; BIAcore T200; CsgA peptides immobilised on a CM7 chip by EDC/NHS coupling; DnaK 50–1000 nM as analyte, single-cycle kinetics; 25 °C; HBS-DM buffer (10 mM HEPES pH 7.4, 150 mM NaCl, 5 mM MgCl2, 1% dimethylsulfoxide); 30 μL min^−1; fit with a 1:1 binding mode; settings: both partners purified

| Binder | binding result [1] | Kd [2] | koff [2] | kon [2] |
| --- | --- | --- | --- | --- |
| H-KNKLLFMM-OH (source: synthetic peptide, CelluSpot peptide array (Intavis Bioanalytical Instruments)) [N-terminal 8-amino acid peptide of CsgB (NH2-KNKLLFMM-COOH)] | binds | – | – | – |
| KLLKVAAIAAIVFSGSALA (also called CsgA signal peptide; source: synthetic peptide (Eurofins Genomics, HPLC >95%)) [CsgA_(2–20) (signal peptide of CsgA without the N-terminal Met)] | – | 2.19 nM | 0.000256 s⁻¹ | 117000 M⁻¹ s⁻¹ |
| H-KLLKVAAI-OH (source: synthetic peptide, CelluSpot peptide array (Intavis Bioanalytical Instruments)) [N-terminal 8-amino acid peptide of CsgA (NH2-KLLKVAAI-COOH)] | binds | – | – | – |
| SSVNVTQVGFGNNATAHQY (source: synthetic peptide (Eurofins Genomics, HPLC >95%)) [CsgA_(133–151) (R5, the most amyloidogenic of the five repeats)] | – | 20.7 nM | 9.77e-05 s⁻¹ | 4720 M⁻¹ s⁻¹ |

From PMC6123696, “Multitasking of Hsp70 chaperone in the biogenesis of bacterial functional amyloids” (Communications Biology, 2018)
